Experimental findings from PMC10877974 are described below.

In test [1] the target is Ad35K++ (recombinant adenovirus serotype 35 fiber knob protein with affinity-enhancing mutations) (adenovirus serotype 35). The experiment in a line: SDS-PAGE of unboiled sample; reduced 4-15% gradient gel, Laemmli sample buffer with beta-mercaptoethanol, sample not boiled, Coomassie Blue.
Test [2] has the same target. The experiment in a line: SEC; Superdex 200 Increase 10/300 GL, 1x Tris-buffered saline, 1 mL/min; cGMP grade Ad35K++.

In the case of “Ad35K++ (recombinant adenovirus serotype 35 fiber knob protein with affinity-enhancing mutations) (domain or fragment)”, the stoichiometry N in test [1] and in test [2] was 3 in each case.
